# Experimental data taken from publication PMC9242541, “Importance of Rare DPYD Genetic Polymorphisms for 5-Fluorouracil Therapy in the Japanese Population” (Frontiers in Pharmacology, 2022).
# Residue numbers refer to the chain shown, from its start. In names and notes the source's numbering stands.
# B1: DPD variant V434L (enzyme, human, UniProt Q12882 4-1025, looked up)
# chain: VLSKDSADIESILALNPRTQTHATLCSTSAKKLDKKHWKRNPDKNCFNCEKLENNFDDIKHTTLGERGALREAMRCLKCADAPCQKSCPTNLDIKSFITSIANKNYYGAAKMIFSDNPLGLTCGMVCPTSDLCVGGCNLYATEEGPINIGGLQQFATEVFKAMSIPQIRNPSLPPPEKMSEAYSAKIALFGAGPASISCASFLARLGYSDITIFEKQEYVGGLSTSEIPQFRLPYDVVNFEIELMKDLGVKIICGKSLSVNEMTLSTLKEKGYKAAFIGIGLPEPNKDAIFQGLTQDQGFYTSKDFLPLVAKGSKAGMCACHSPLPSIRGVVIVLGAGDTAFDCATSALRCGARRVFIVFRKGFVNIRAVPEEMELAKEEKCEFLPFLSPRKVIVKGGRIVAMQFVRTEQDETGKWNEDEDQMVHLKADVLISAFGSVLSDPKVKEALSPIKFNRWGLPEVDPETMQTSEAWVFAGGDVVGLANTTVESVNDGKQASWYIHKYVQSQYGASVSAKPELPLFYTPIDLVDISVEMAGLKFINPFGLASATPATSTSMIRRAFEAGWGFALTKTFSLDKDIVTNVSPRIIRGTTSGPMYGPGQSSFLNIELISEKTAAYWCQSVTELKADFPDNIVIASIMCSYNKNDWTELAKKSEDSGADALELNLSCPHGMGERGMGLACGQDPELVRNICRWVRQAVQIPFFAKLTPNVTDIVSIARAAKEGGANGVTATNTVSGLMGLKSDGTPWPAVGIAKRTTYGGVSGTAIRPIALRAVTSIARALPGFPILATGGIDSAESGLQFLHSGASVLQVCSAIQNQDFTVIEDYCTGLKALLYLKSIEELQDWDGQSPATVSHQKGKPVPRIAELMDKKLPSFGPYLEQRKKIIAENKIRLKEQNVAFSPLKRNCFIPKRPIPTIKDVIGKALQYLGTFGELSNVEQVVAMIDEEMCINCGKCYMTCNDSGYQAIQFDPETHLPTITDTCTGCTLCLSVCPIVDCIKMVSRTTPYEPKRGVPLSVNPVC
# notes: dihydropyrimidine dehydrogenase (DPD), human, DPYD cDNA with a variant found in Japanese individuals; made by site-directed mutagenesis of the wild-type construct; also called 1300G > C; source: 293FT cells, transfected (pcDNA3.4), soluble fraction
# B2: DPD variant S939N (enzyme, human, UniProt Q12882 4-1025, looked up)
# chain: B1 chain with L431V, S936N
# notes: dihydropyrimidine dehydrogenase (DPD), human, DPYD cDNA with a variant found in Japanese individuals; made by site-directed mutagenesis of the wild-type construct; also called 2816G > A; source: 293FT cells, transfected (pcDNA3.4), soluble fraction
# B3: DPD risk variant D949V (enzyme, human, UniProt Q12882 4-1025, looked up)
# chain: B1 chain with L431V, D946V
# notes: dihydropyrimidine dehydrogenase (DPD), human, DPYD cDNA with a risk variant reported in Caucasians; made by site-directed mutagenesis of the wild-type construct; also called c.2846A>T; 2846A > T; source: 293FT cells, transfected (pcDNA3.4), soluble fraction
# B4: DPD variant G748D (enzyme, human, UniProt Q12882 4-1025, looked up)
# chain: B1 chain with L431V, G745D
# notes: dihydropyrimidine dehydrogenase (DPD), human, DPYD cDNA with a variant found in Japanese individuals; made by site-directed mutagenesis of the wild-type construct; also called 2243G > A; source: 293FT cells, transfected (pcDNA3.4), soluble fraction
# B5: DPD variant R886H (enzyme, human, UniProt Q12882 4-1025, looked up)
# chain: B1 chain with L431V, R883H
# notes: dihydropyrimidine dehydrogenase (DPD), human, DPYD cDNA with a variant found in Japanese individuals; made by site-directed mutagenesis of the wild-type construct; also called 2657G > A (*9B); source: 293FT cells, transfected (pcDNA3.4), soluble fraction
# B6: DPD variant A191V (enzyme, human, UniProt Q12882 4-1025, looked up)
# chain: B1 chain with A188V, L431V
# notes: dihydropyrimidine dehydrogenase (DPD), human, DPYD cDNA with a variant found in Japanese individuals; made by site-directed mutagenesis of the wild-type construct; also called 572C > T; source: 293FT cells, transfected (pcDNA3.4), soluble fraction
# B7: DPD variant T990I (enzyme, human, UniProt Q12882 4-1025, looked up)
# chain: B1 chain with L431V, T987I
# notes: dihydropyrimidine dehydrogenase (DPD), human, DPYD cDNA with a variant found in Japanese individuals; made by site-directed mutagenesis of the wild-type construct; also called 2969C > T; source: 293FT cells, transfected (pcDNA3.4), soluble fraction
# B8: DPD variant V738L (enzyme, human, UniProt Q12882 4-1025, looked up)
# chain: B1 chain with L431V, V735L
# notes: dihydropyrimidine dehydrogenase (DPD), human, DPYD cDNA with a variant found in Japanese individuals; made by site-directed mutagenesis of the wild-type construct; also called 2212G > C; source: 293FT cells, transfected (pcDNA3.4), soluble fraction
# B9: DPD variant S175L (enzyme, human, UniProt Q12882 4-1025, looked up)
# chain: B1 chain with S172L, L431V
# notes: dihydropyrimidine dehydrogenase (DPD), human, DPYD cDNA with a variant found in Japanese individuals; made by site-directed mutagenesis of the wild-type construct; also called 524C > T; source: 293FT cells, transfected (pcDNA3.4), soluble fraction
# B10: DPD variant I543V (enzyme, human, UniProt Q12882 4-1025, looked up)
# chain: B1 chain with L431V, I540V
# notes: dihydropyrimidine dehydrogenase (DPD), human, DPYD cDNA with a variant found in Japanese individuals; made by site-directed mutagenesis of the wild-type construct; also called 1627A > G (*5); source: 293FT cells, transfected (pcDNA3.4), soluble fraction
# B11: DPD variant V732I (enzyme, human, UniProt Q12882 4-1025, looked up)
# chain: B1 chain with L431V, V729I
# notes: dihydropyrimidine dehydrogenase (DPD), human, DPYD cDNA with a variant found in Japanese individuals; made by site-directed mutagenesis of the wild-type construct; also called 2194G > A (*6); source: 293FT cells, transfected (pcDNA3.4), soluble fraction
# B12: DPD variant Q604L (enzyme, human, UniProt Q12882 4-1025, looked up)
# chain: B1 chain with L431V, Q601L
# notes: dihydropyrimidine dehydrogenase (DPD), human, DPYD cDNA with a variant found in Japanese individuals; made by site-directed mutagenesis of the wild-type construct; also called 1811A > T; source: 293FT cells, transfected (pcDNA3.4), soluble fraction
# B13: DPD variant F524L (enzyme, human, UniProt Q12882 4-1025, looked up)
# chain: B1 chain with L431V, F521L
# notes: dihydropyrimidine dehydrogenase (DPD), human, DPYD cDNA with a variant found in Japanese individuals; made by site-directed mutagenesis of the wild-type construct; also called 1572T > G; source: 293FT cells, transfected (pcDNA3.4), soluble fraction
# B14: DPD variant M166V (enzyme, human, UniProt Q12882 4-1025, looked up)
# chain: B1 chain with M163V, L431V
# notes: dihydropyrimidine dehydrogenase (DPD), human, DPYD cDNA with a variant found in Japanese individuals; made by site-directed mutagenesis of the wild-type construct; also called 496A > G; source: 293FT cells, transfected (pcDNA3.4), soluble fraction
# B15: DPD variant F438V (enzyme, human, UniProt Q12882 4-1025, looked up)
# chain: B1 chain with L431V, F435V
# notes: dihydropyrimidine dehydrogenase (DPD), human, DPYD cDNA with a variant found in Japanese individuals; made by site-directed mutagenesis of the wild-type construct; also called 1312T > G; source: 293FT cells, transfected (pcDNA3.4), soluble fraction
# B16: DPD variant I843T (enzyme, human, UniProt Q12882 4-1025, looked up)
# chain: B1 chain with L431V, I840T
# notes: dihydropyrimidine dehydrogenase (DPD), human, DPYD cDNA with a variant found in Japanese individuals; made by site-directed mutagenesis of the wild-type construct; also called 2528T > C; source: 293FT cells, transfected (pcDNA3.4), soluble fraction
# B17: DPD risk variant I560S (DPYD*13) (enzyme, human, UniProt Q12882 4-1025, looked up)
# chain: B1 chain with L431V, I557S
# notes: dihydropyrimidine dehydrogenase (DPD), human, DPYD cDNA with a risk variant reported in Caucasians; made by site-directed mutagenesis of the wild-type construct; also called c.1679T>G; 1679T > G (*13); source: 293FT cells, transfected (pcDNA3.4), soluble fraction
# B18: DPD variant C29R (enzyme, human, UniProt Q12882 4-1025, looked up)
# chain: B1 chain with C26R, L431V
# notes: dihydropyrimidine dehydrogenase (DPD), human, DPYD cDNA with a variant found in Japanese individuals; made by site-directed mutagenesis of the wild-type construct; also called 85T > C (*9A, *9B); source: 293FT cells, transfected (pcDNA3.4), soluble fraction
# B19: DPD variant V826M (enzyme, human, UniProt Q12882 4-1025, looked up)
# chain: B1 chain with L431V, V823M
# notes: dihydropyrimidine dehydrogenase (DPD), human, DPYD cDNA with a variant found in Japanese individuals; made by site-directed mutagenesis of the wild-type construct; also called 2476G > A; source: 293FT cells, transfected (pcDNA3.4), soluble fraction
# B20: DPD variant N893S (enzyme, human, UniProt Q12882 4-1025, looked up)
# chain: B1 chain with L431V, N890S
# notes: dihydropyrimidine dehydrogenase (DPD), human, DPYD cDNA with a variant found in Japanese individuals; made by site-directed mutagenesis of the wild-type construct; also called 2678A > G; source: 293FT cells, transfected (pcDNA3.4), soluble fraction
# B21: DPD variant H807R (enzyme, human, UniProt Q12882 4-1025, looked up)
# chain: B1 chain with L431V, H804R
# notes: dihydropyrimidine dehydrogenase (DPD), human, DPYD cDNA with a variant found in Japanese individuals; made by site-directed mutagenesis of the wild-type construct; source: 293FT cells, transfected (pcDNA3.4), soluble fraction
# B22: DPD variant T768K (enzyme, human, UniProt Q12882 4-1025, looked up)
# chain: B1 chain with L431V, T765K
# notes: dihydropyrimidine dehydrogenase (DPD), human, DPYD cDNA with a variant found in Japanese individuals; made by site-directed mutagenesis of the wild-type construct; also called 2303C > A; source: 293FT cells, transfected (pcDNA3.4), soluble fraction
# B23: DPD variant V515I (enzyme, human, UniProt Q12882 4-1025, looked up)
# chain: B1 chain with L431V, V512I
# notes: dihydropyrimidine dehydrogenase (DPD), human, DPYD cDNA with a variant found in Japanese individuals; made by site-directed mutagenesis of the wild-type construct; also called 1543G > A; source: 293FT cells, transfected (pcDNA3.4), soluble fraction
# B24: DPD variant R592W (enzyme, human, UniProt Q12882 4-1025, looked up)
# chain: B1 chain with L431V, R589W
# notes: dihydropyrimidine dehydrogenase (DPD), human, DPYD cDNA with a variant found in Japanese individuals; made by site-directed mutagenesis of the wild-type construct; also called 1774C > T; source: 293FT cells, transfected (pcDNA3.4), soluble fraction
# B25: DPD variant Y109N (enzyme, human, UniProt Q12882 4-1025, looked up)
# chain: B1 chain with Y106N, L431V
# notes: dihydropyrimidine dehydrogenase (DPD), human, DPYD cDNA with a variant found in Japanese individuals; made by site-directed mutagenesis of the wild-type construct; also called 325T > A; source: 293FT cells, transfected (pcDNA3.4), soluble fraction
# B26: DPD variant M77V (enzyme, human, UniProt Q12882 4-1025, looked up)
# chain: B1 chain with M74V, L431V
# notes: dihydropyrimidine dehydrogenase (DPD), human, DPYD cDNA with a variant found in Japanese individuals; made by site-directed mutagenesis of the wild-type construct; also called 229A > G; source: 293FT cells, transfected (pcDNA3.4), soluble fraction
# B27: DPD variant I560V (enzyme, human, UniProt Q12882 4-1025, looked up)
# chain: B1 chain with L431V, I557V
# notes: dihydropyrimidine dehydrogenase (DPD), human, DPYD cDNA with a variant found in Japanese individuals; made by site-directed mutagenesis of the wild-type construct; also called 1678A > G; source: 293FT cells, transfected (pcDNA3.4), soluble fraction
# B28: DPD variant N151D (enzyme, human, UniProt Q12882 4-1025, looked up)
# chain: B1 chain with N148D, L431V
# notes: dihydropyrimidine dehydrogenase (DPD), human, DPYD cDNA with a variant found in Japanese individuals; made by site-directed mutagenesis of the wild-type construct; also called 451A > G; source: 293FT cells, transfected (pcDNA3.4), soluble fraction
# B29: DPD variant I528V (enzyme, human, UniProt Q12882 4-1025, looked up)
# chain: B1 chain with L431V, I525V
# notes: dihydropyrimidine dehydrogenase (DPD), human, DPYD cDNA with a variant found in Japanese individuals; made by site-directed mutagenesis of the wild-type construct; also called 1582A > G; source: 293FT cells, transfected (pcDNA3.4), soluble fraction
# Target: the molecule itself
# Test: native gel or EMSA; blue native PAGE (Tris-glycine buffer, 5%-20% polyacrylamide gels), 9 μg of the soluble fraction of transfected 293FT cells per lane, immunoblot with polyclonal anti-human DPD antibody; monomer to dimer
row,Protein,stoichiometry N
1,B1,2
2,B2,2
3,B3,2
4,B4,2
5,B5,2
6,B6,2
7,B7,2
8,B8,2
9,B9,2
10,B10,2
11,B11,2
12,B12,2
13,B13,2
14,B14,2
15,B15,2
16,B16,2
17,B17,2
18,B18,2
19,B19,2
20,B20,2
21,B21,2
22,B22,2
23,B23,2
24,B24,2
25,B25,2
26,B26,2
27,B27,2
28,B28,2
29,B29,2
